Biological target: Tail-T(ii)-MH chimeric adenovirus spike protein (adenovirus serotype 5; reovirus type 3 Dearing) (UniProt P11818)

anti-His antibody (penta-His MAb; Qiagen)
transduction of 293HissFv.rec cells (luciferase activity): 90%

From US20110189234A1
